Test [1] deals with human LAG-3 protein with hFc tag (hLAG-3-hFc protein) (human) (UniProt P18627). The test is described as follows: FACS, blocks LAG-3-hFc binding to MHC II on Raji; 0.000 nM. (A flow cytometer gives signals particle by particle.)
For test [2] the target is unchanged. The test is described as follows: FACS, blocks LAG-3-hFc binding to MHC II on Raji; 200.000 nM.
Test [3] deals with human LAG-3 (full length, on the cell surface) (human) (UniProt P18627). The test is described as follows: FACS, HEK293-hLAG-3; 40.000 nM.
Test [4] addresses human LAG-3 protein with hFc tag (hLAG-3-hFc protein) (human) (UniProt P18627). The test is described as follows: FACS, blocks LAG-3-hFc binding to MHC II on Raji; 66.667 nM.
Test [5] deals with monkey LAG-3 (full length, on the cell surface) (monkey). The test is described as follows: FACS, HEK293-cLAG-3; 0.013 nM.
Test [6] concerns the target human LAG-3 protein with hFc tag (hLAG-3-hFc protein) (human) (UniProt P18627). The test is described as follows: FACS, blocks LAG-3-hFc binding to MHC II on Raji; 2.469 nM.
Test [7] has as its target human LAG-3 (full length, on the cell surface) (human) (UniProt P18627). The test is described as follows: FACS, HEK293-hLAG-3; 0.000 nM.
Test [8] concerns the target monkey LAG-3 (full length, on the cell surface) (monkey). The test is described as follows: FACS, HEK293-cLAG-3; 40.000 nM.
In test [9] the target is human LAG-3 (full length, on the cell surface) (human) (UniProt P18627). The test is described as follows: FACS, HEK293-hLAG-3; 200.000 nM.
For test [10], the target named is human LAG-3 protein with hFc tag (hLAG-3-hFc protein) (human) (UniProt P18627). The test is described as follows: FACS, blocks LAG-3-hFc binding to MHC II on Raji; 7.407 nM.
Test [11] deals with monkey LAG-3 (full length, on the cell surface) (monkey). The test is described as follows: FACS, HEK293-cLAG-3; 8.000 nM.
In test [12] the target is human LAG-3 protein with hFc tag (hLAG-3-hFc protein) (human) (UniProt P18627). The test is described as follows: FACS, blocks LAG-3-hFc binding to MHC II on Raji; 0.823 nM.
The target is the same in test [13]. The test is described as follows: FACS, blocks LAG-3-hFc binding to MHC II on Raji; 0.274 nM.
The target in test [14] is human LAG-3 (full length, on the cell surface) (human) (UniProt P18627). The test is described as follows: FACS, HEK293-hLAG-3; 0.320 nM.
For test [15], the target named is human LAG-3 protein with hFc tag (hLAG-3-hFc protein) (human) (UniProt P18627). The test is described as follows: FACS, blocks LAG-3-hFc binding to MHC II on Raji; 22.222 nM.
Test [16] deals with human LAG-3 (full length, on the cell surface) (human) (UniProt P18627). The test is described as follows: FACS, HEK293-hLAG-3; 8.000 nM.
For test [17], the target named is monkey LAG-3 (full length, on the cell surface) (monkey). The test is described as follows: FACS, HEK293-cLAG-3; 0.064 nM.
The target in test [18] is human LAG-3 (full length, on the cell surface) (human) (UniProt P18627). The test is described as follows: cell-based or functional assay.
Target sequence in this assay (P18627 23-525 limits assumed): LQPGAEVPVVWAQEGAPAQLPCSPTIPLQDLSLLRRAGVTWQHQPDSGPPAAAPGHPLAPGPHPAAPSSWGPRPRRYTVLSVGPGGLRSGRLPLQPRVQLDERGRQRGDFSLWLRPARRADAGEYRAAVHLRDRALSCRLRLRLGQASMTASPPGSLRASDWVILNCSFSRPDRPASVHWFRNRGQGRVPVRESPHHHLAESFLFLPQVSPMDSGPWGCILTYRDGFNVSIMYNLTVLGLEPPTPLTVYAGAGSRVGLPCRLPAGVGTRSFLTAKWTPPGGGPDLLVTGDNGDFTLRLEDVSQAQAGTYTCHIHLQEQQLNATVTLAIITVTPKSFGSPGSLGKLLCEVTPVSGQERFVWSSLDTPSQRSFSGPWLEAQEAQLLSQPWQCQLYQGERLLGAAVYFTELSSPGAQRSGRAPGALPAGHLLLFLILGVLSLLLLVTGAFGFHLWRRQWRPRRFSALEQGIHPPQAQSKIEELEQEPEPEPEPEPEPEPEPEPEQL
Test [19] shares this target. The test is described as follows: FACS, HEK293-hLAG-3; 1.600 nM.
For test [20], the target named is monkey LAG-3 (full length, on the cell surface) (monkey). The test is described as follows: FACS, HEK293-cLAG-3; 1.600 nM.
Test [21] shares this target. The test is described as follows: FACS, HEK293-cLAG-3; 200.000 nM.
The target is the same in test [22]. The test is described as follows: FACS, HEK293-cLAG-3; 0.000 nM.
For test [23] the target is unchanged. The test is described as follows: FACS, HEK293-cLAG-3; 0.320 nM.
The target of test [24] is human LAG-3 (full length, on the cell surface) (human) (UniProt P18627). The test is described as follows: FACS, HEK293-hLAG-3; 0.013 nM.
The target is the same in test [25]. The test is described as follows: FACS, HEK293-hLAG-3; 0.064 nM.
The target is the same in test [26]. The test is described as follows: cell-based or functional assay. This is another data set of the same source.
Test [27] concerns the target T1, human LAG-3 ECD (antigen protein of the affinity test) (human, UniProt P18627 23-450).
T1 sequence: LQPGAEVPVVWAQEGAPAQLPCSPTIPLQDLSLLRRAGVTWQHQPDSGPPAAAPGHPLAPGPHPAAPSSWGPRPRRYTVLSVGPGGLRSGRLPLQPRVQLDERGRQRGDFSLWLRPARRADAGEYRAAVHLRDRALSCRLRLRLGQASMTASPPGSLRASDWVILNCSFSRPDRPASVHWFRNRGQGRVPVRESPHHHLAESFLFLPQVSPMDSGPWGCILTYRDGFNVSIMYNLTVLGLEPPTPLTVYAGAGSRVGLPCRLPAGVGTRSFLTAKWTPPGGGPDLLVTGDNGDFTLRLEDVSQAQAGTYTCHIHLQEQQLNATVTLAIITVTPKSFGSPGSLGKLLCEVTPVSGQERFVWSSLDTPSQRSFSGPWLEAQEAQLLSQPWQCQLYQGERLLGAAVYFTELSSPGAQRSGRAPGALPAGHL
The test is described as follows: SPR, antibody captured by anti-human Fc IgG on CM5; ratio of KD values. On the procedure: First, anti-human Fc IgG was immobilized on the surface of the CM5 chip to 6000-10000 RU by amino coupling method, with FC1 as the reference channel. The coupling process was as follows: a freshly prepared 1:1 mixture of 50 mM NHS and 200 mM EDC was activated for 7 minutes, then injected with 10-50 ug/ml anti-human Fc IgG diluted in 10 mM sodium acetate ph5.0 buffer. The remaining activated sites were blocked with 1M ethanolamine. Then, HBS-EP+ buffer was used to dilute the antibody to be tested to 5 ug/ml (adjustable according to the capture level) and the antibodies were captured on the chip at a flow rate of 10 ul/min to obtain a response value of about 100˜300 RU. Then the antigen protein was diluted to 100 nM (the highest concentration was tentatively 100 nM), and flew through the chip surface at a flow rate of 30 ul/min. If enough signal value was obtained, the antigen-protein was diluted by several concentration gradients, and flew through the chip surface respectively. At the end of each cycle, the chip surface was regenerated with 10 mM Glycine at pH 1.5. The kinetic rate constant needed to be subtracted from the blank control, and the data was fitted with the global fit analysis method 1:1 combination model. The dissociation equilibrium rate constant (KD) was calculated according to the following formula: KD=kd/ka.
The method was the same as that in Example 5.
A general note: SPR reads the build-up and loss of mass on a sensor chip optically.

Where “and” joins values, the source holds several entries; their conditions need not be identical. Equal values may be shown once.

Chain of monkey LAG-3 (full length, on the cell surface) (monkey) (P18627 other isoform, or with tags, fused parts or gaps limits assumed): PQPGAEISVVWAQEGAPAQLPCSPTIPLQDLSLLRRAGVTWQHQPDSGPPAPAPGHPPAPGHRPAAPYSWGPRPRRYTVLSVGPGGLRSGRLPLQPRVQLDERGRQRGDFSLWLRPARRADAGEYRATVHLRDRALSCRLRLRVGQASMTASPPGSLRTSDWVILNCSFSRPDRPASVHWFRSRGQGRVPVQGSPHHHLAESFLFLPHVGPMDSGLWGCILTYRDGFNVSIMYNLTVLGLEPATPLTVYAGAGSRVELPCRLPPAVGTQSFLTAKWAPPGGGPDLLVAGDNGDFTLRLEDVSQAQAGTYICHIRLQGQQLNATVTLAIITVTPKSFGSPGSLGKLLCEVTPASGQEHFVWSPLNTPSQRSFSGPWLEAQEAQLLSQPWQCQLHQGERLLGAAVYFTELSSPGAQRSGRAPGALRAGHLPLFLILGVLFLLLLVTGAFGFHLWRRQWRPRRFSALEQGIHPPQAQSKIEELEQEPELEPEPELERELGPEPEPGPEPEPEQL

As to mIgG1 (murine IgG control) (antibody), the Inhibition rate (%) in test [1] is 8.2% and -11.5%; in [2], 12.8% and -0.9%; in test [4], 6.7% and 7.4%; in test [6], 13.7% and 1.8%; in [10] it was 3.4% and 2.8%; in test [12] it was 13.8% and 4%. For the same molecule, the Inhibition rate (%) is 5.3% and -3.9% in test [13]; 2.8% and 4.2% in [15]. Further, the Mean fluorescence intensity was 2.8 MFI and 4 MFI in test [3]; 3.5 MFI and 4 MFI in test [5]; 3 MFI and 3.8 MFI in [7]; 3.3 MFI and 4.1 MFI in [8]; 2.8 MFI and 4.2 MFI in test [9]; 3.3 MFI and 4.1 MFI in [11]. Further, the Mean fluorescence intensity in test [14] was 2.7 MFI and 3.8 MFI; in test [16] it was 2.9 MFI and 3.9 MFI; in test [17] it was 3.2 MFI and 4 MFI; in test [19] it was 2.7 MFI and 3.9 MFI; in test [20], 3.2 MFI and 4 MFI; in test [21] it was 3.6 MFI and 4.2 MFI. For the same molecule, the Mean fluorescence intensity in test [22] was 3.4 MFI and 4 MFI; in test [23], 3.3 MFI and 4 MFI; in test [24], 2.9 MFI and 3.8 MFI; in test [25], 2.9 MFI and 3.8 MFI. Moreover, the mIL-2 (pg/mL), antigen-specific T lymphocyte stimulation test; control IgG 0.016 ug/mL in [18] was 177 pg/mL and 104 pg/mL. The mIL-2 (pg/mL), antigen-specific T lymphocyte stimulation test; control IgG 0.08 ug/mL in test [18] is 175 pg/mL and 89.2 pg/mL. For the same molecule, in test [18], the mIL-2 (pg/mL), antigen-specific T lymphocyte stimulation test; control IgG 2 ug/mL is 174 pg/mL and 84.1 pg/mL. Also, the mIL-2 (pg/mL), antigen-specific T lymphocyte stimulation test; control IgG 4 ug/mL (so in the source) in test [18] is 145 pg/mL and 84.2 pg/mL. Moreover, the mIL-2 (pg/mL), antigen-specific T lymphocyte stimulation test; control IgG 10 ug/mL in test [18] was 169 pg/mL and 108 pg/mL.

B1: 553G8G8 (mouse antibody purified from hybridoma) (antibody, V domains shown)
VH: RVQLKQSGPGLVQPSQSLSITCTVSGFSLIKYGVHWVRQSPGEGLEWLGVIWRGGITDYNAAFMSRLSITKDNSKSQVFFKMNSLQADDTAIYYCAKWDGPLAMDYWGQGTSVTVSS
VL: DVQMIQSPSSLSASLGDMVTMTCQASQGTNINLNWFQQKPGKAPKLLIYGASNLEDGVPSRFSGSRYGTDFTLTISSLEDEDMATYFGLQHSYLPLTFGAGTKLELK
For B1, the Inhibition rate (%) in [1] is -12.4%; in test [2], 95.9%; in [4], 96%; in [6] it was 45%; in [10] it was 93.8%; in test [12], 15.2%. Further, the Inhibition rate (%) in test [13] is 8.1%; in test [15], 95.8%. The Mean fluorescence intensity in test [3] came to 79.4 MFI; in test [5], 3.5 MFI; in test [7] it was 2.7 MFI; in test [8], 112 MFI; in test [9], 81 MFI; in [11], 77.7 MFI. For the same molecule, the Mean fluorescence intensity came to 17.1 MFI in test [14]; 68.4 MFI in test [16]; 4.2 MFI in test [17]; 44.4 MFI in test [19]; 28.1 MFI in [20]; 128 MFI in test [21]. The Mean fluorescence intensity in test [22] was found to be 3.2 MFI; in test [23] it was 8.8 MFI; in test [24] it was 3.9 MFI; in test [25] it was 7 MFI. The mIL-2 (pg/mL), antigen-specific T lymphocyte stimulation test; antibody 0.016 ug/mL in test [26] was found to be 98.2 pg/mL. The molecule further displayed a mIL-2 (pg/mL), antigen-specific T lymphocyte stimulation test; antibody 0.08 ug/mL in test [26] of 134 pg/mL. In [26], this molecule returned a mIL-2 (pg/mL), antigen-specific T lymphocyte stimulation test; antibody 2 ug/mL of 251 pg/mL. The same molecule registered a mIL-2 (pg/mL), antigen-specific T lymphocyte stimulation test; antibody 10 ug/mL in test [26] of 352 pg/mL.

B2: 556F6B8-3 (D→E) (humanized antibody with hot spot mutation) (antibody, human IgG4, V domains shown)
VH: QVQLQESGPGLVKPSETLSLTCTVSGFSLIKYGVHWIRQPPGKGLEWIGVIWRGGITDYNAAFMSRVTISKDTSKSQVSLKLSSVTAADTAVYYCARWEGPLAMDYWGQGTTVTVSS
VL: DIQLTQSPSFLSASVGDRVTITCKASQDVGTTVAWYQQKPGKAPKLLIYWASTRHTGVPSRFSGSGSGTEFTLTISSLQPEDFATYYCQQYSSYPYTFGQGTKLEIK
notes: made as the humanized antibodies (human IgG4 constant region); also called humanized antibody 556F6B8-3 with hot spot mutation
In the case of B2, in test [27], the “fold reduction of affinity against the corresponding chimeric antibody” value came out at 12.5 fold.

B3: 405B8H3-1 (D→E) (humanized antibody with hot spot mutation) (antibody, human IgG4, V domains shown)
VH: QVQLVQSGAEVKKPGASVKVSCKASGYTFTDYEMHWVRQAPGQGLEWMGATDPETGNSAYNQKFKGRVTMTRDTSTSTVYMELSSLRSEDTAVYYCISTGWNDWGQGTTVTVSS
VL: DIQMTQSPSSLSASVGDRVTITCKASQDINSYLSWFQQKPGKAPKSLIYRADRLLEGVPSRFSGSGSGTDFTLTISSLQPEDFATYYCLQYDEFPYTFGQGTKLEIK
notes: made as the humanized antibodies (human IgG4 constant region); also called 405B81-13-1 (D→E); hot-spot mutated antibody
As for B3, the “fold increase of affinity against the chimeric antibody 405B8H3” value in test [27] came out at 1.5 times.

Source of the values: patent US20210155689A1 (SHANGHAI PHARMAEXPLORER, published 2021).
